Entries after “also recorded” stand apart in the source; their conditions may differ. Each block holds one molecule with its values, some of them ahead of it. Where no end group is shown, it is not given here.
Experiments:
xenograft A431 = assay: immunohistochemistry of xenograft sections; parameters: species or system human
Method: (§1) Xenografts were excised and bisected. One half was fixed in 10% formalin/PBS before being embedded in paraffin. Four micron sections were then cut and stained with haematoxylin and eosin (H&E) for routine histological examination. The other half was embedded in Tissue Tek® OCT compound (Sakura Finetek, Torrance, CA), frozen in liquid nitrogen and stored at −80° C. Thin (5 micron) cryostat sections were cut and fixed in ice-cold acetone for 10 min followed by air drying for a further 10 min. Sections were blocked in protein blocking reagent (Lipshaw Immunon, Pittsburgh U.S.A.) for 10 min and then incubated with biotinylated primary antibody (1 mg/ml), for 30 min at room temperature (RT). All antibodies were biotinylated using the ECL™ protein biotinylation module (Amersham, Baulkham Hills, Australia), as per the manufacturer's instructions. After rinsing with PBS, sections were incubated with a streptavidin horseradish peroxidase complex for a further 30 min (Silenus, Melbourne, Australia). Following a final PBS wash the sections were exposed to 3-amino-9-ethylcarbozole (AEC) substrate (0.1 M acetic acid, 0.1 M sodium acetate, 0.02 M AEC (Sigma Chemical Co., St Louis, MO)) in the presence of hydrogen peroxide for 30 min. Sections were rinsed with water and counterstained with hematoxylin for 5 min and mounted.
(§2) Bound antibody was detected using the Dako Envision™+HRP detection system as per manufacturer's instructions. Sections were finally rinsed with water, counterstained with hematoxylin and mounted.

xenograft U87MG (native) = assay: immunohistochemistry of xenograft sections; parameters: species or system human
Method: as §1, §2

[1] = test system: normal human liver sections; assay: immunohistochemistry with mAb175
Method: as §2
The U87MG cell line only expresses modest levels of the wild-type EGFR (FIG. 66A) and has no detectable EGFR autocrine loop.

EGFR fragments = assay: Western blot of GH/EGFR fragment fusion proteins; type: binding, human
Method: The day prior to transfection with these fragments, human 293T embryonic-kidney fibroblasts were seeded at 8×10^5 per well in 6-well tissue culture plates containing 2 ml of media. Cells were transfected with 3-4 μg of plasmid DNA complexed with Lipofectamine™ 2000 (Invitrogen) according to the manufacturer's instructions. […] Parallel membranes were probed overnight with mAb 9B11 (1:5000, Cell Signaling Technology, Danvers, Massachusetts) to detect the c-myc epitope. Membranes were washed in TBST, and incubated in blocking buffer containing horseradish peroxidase-conjugated rabbit anti-mouse IgG (Biorad) at a 1:5000 dilution for 2 h at room temperature. Blots were then washed in TBST, and developed using autoradiographic film following incubation with Western Pico Chemiluminescent Substrate (Pierce, Rockford, Illinois).
(§3) Expression of EGFR proteins on the yeast cell surface was performed as previously described (Johns et al., 2004).

[2] = test system: EGFR fragments displayed on yeast; assay: yeast surface display of EGFR fragments; type: binding, human
Method: as §3
Briefly, transformed colonies were grown at 30° C. in minimal media containing yeast nitrogen base, casein hydrolysate, dextrose, and phosphate buffer pH 7.4, on a shaking platform for approximately one day until an OD600 of 5-6 was reached. Yeast cells were then induced for protein display by transferring to minimal media containing galactose, and incubated with shaking at 30° C. for 24 h. Cultures were then stored at 4° C. until analysis. Raw ascites fluid containing the c-myc monoclonal antibody 9E10 was obtained from Covance (Richmond, CA). 1×10^6 yeast cells were washed with ice-cold FACS buffer (PBS containing 1 mg/ml BSA) and incubated with either anti-c-myc ascites (1:50 dilution), or human EGFR monoclonal antibody (10 μg/ml) in a final volume of 50 μl, for 1 hr at 4° C. The cells were then washed with ice cold FACS buffer and incubated with phycoerythrin-labelled anti-mouse IgG (1:25 dilution), in a final volume of 50 μl for 1 h at 4° C., protected from light. After washing the yeast cells with ice-cold FACS buffer, fluorescence data was obtained with a Coulter Epics XL flow cytometer (Beckman-Coulter), and analyzed with WinMDI cytometry software (J. Trotter, Scripps University). […]

DU145 cells = assay: FACS binding to cell lines; type: cell-based, human
Description: Clearly, mAb806 and mAb175 can recognize only a small proportion of the EGFR on cells in the presence of an autocrine stimulation loop.

DU145 xenografts = assay: established xenograft model; type: in vivo, nude mice; conditions: day 67; 1 mg i.p.
Description: Xenografts were allowed to establish for 18 days before therapy commenced (3 times a week for 3 weeks on days indicated). At this time the average tumor volume was 90 mm^3 (FIG. 68D).

[3] = biological target: EGFR peptide 287-302 (806 peptide epitope) (human); assay: BIAcore, peptide 287-302 immobilised by amine coupling
[4] = biological target: EGFR peptide 287-302 (806 peptide epitope) (human); assay: BIAcore, peptide 287-302 immobilised by thiol coupling
[5] = biological target: EGFR peptide 287-302 (806 peptide epitope) (human); assay: BIAcore, peptide 287-302 immobilised by Pms-Ser coupling
[6] = biological target: amplified / overexpressed wild-type EGFR (human) (UniProt P00533); assay: IHC glioblastoma, amplified EGFR, no de2-7 EGFR
de2-7 EGFR (human) = de2-7 EGFR (human) (UniProt P00533); assay: IHC glioblastoma, amplified EGFR with de2-7 EGFR
[7] = biological target: amplified / overexpressed wild-type EGFR (human) (UniProt P00533); assay: Scatchard analysis, 125I-labelled 528, A431 cells
[8] = biological target: wtEGFR-FLAG on Ba/F3 cells (human) (UniProt P00533); assay: FACS median fluorescence, Ba/F3 cells, reference M2 anti-FLAG
[9] = biological target: C271A/C283A-EGFR on Ba/F3 cells (human) (UniProt P00533); assay: FACS median fluorescence, Ba/F3 cells, average for four independent clones, reference M2
A431 xenografts = assay: combination therapy with AG1478, preventative model; type: in vivo, mice; conditions: 0.1 mg mAb806; 400 μg AG1478
Method: AG1478 (4-(3-Chloroanilino)-6,7-dimethoxyquinazoline) is a potent and selective inhibitor of the EGFR kinase versus HER2-neu and platelet-derived growth factor receptor kinase (Calbiochem Cat. No. 658552). […] The results are illustrated in FIG. 12. […] 400 μg AG1478 was administered at 0, 2, 4, 7, 9, and 11 days post xenograft.

EGFR of A431 cells = EGFR of A431 cells (Homo sapiens, UniProt P00533); assay: ELISA of 806 reactivity in lysate of AG1478 treated cells; type: cell-based; conditions: increasing amounts of AG1478 (0.5 μM and 5 μM)
[10] = test system: established A431 xenografts; assay: in vivo 806 therapy study; parameters: species or system BALB/c nude mice; conditions: 6 x 1 mg IP, versus PBS
Method: (§4) To establish xenografts, mice were injected subcutaneously into the right and left inguinal mammary line with 1×10^6 A431 […] cells or 1×10^6 U87MG.de2-7 glioma cells in 100 μl of PBS. Tumor volume (TV) was calculated by the formula [(length×width^2)/2] where length was the longest axis and width the measurement at right angles to length. […] Therapy was administered on days 6, 8, 11, 13, 15 and 18 for A431, and days 4, 6, 8, 11, 13 and 15 for the U87MG.de2-7 cell lines respectively. Mean±SEM tumor volumes until termination of the experiments due to ethical considerations of tumor burden are presented in FIG. 91 for the A431 xenograft until day 25, and in FIG. 92 for U87MG.de2-7 xenografts until day 31.

[11] = test system: established U87MG.de2-7 xenografts; assay: in vivo 806 therapy study; parameters: species or system BALB/c nude mice; conditions: 6 x 1 mg IP, versus PBS
Method: as §4

xenograft U87MGΔEGFR = assay: immunohistochemistry of xenograft sections; parameters: species or system human
[12] = biological target: T1, denatured soluble domain of the EGFR (sEGFR) (Homo sapiens, UniProt P00533); assay: competition ELISA; type: binding; conditions: after unlabeled blocking antibody
T1 construct: sEGFR is the recombinant extracellular domain (amino acids 1-621) of the wild-type EGFR; made in house; host or cells: CHO cells
Method: Briefly, the denatured soluble domain of the EGFR (sEGFR) was coated on to ELISA plates. The unlabeled 124 or 1133 antibodies were then added across the plate in increasing concentrations.

[13] = biological target: T2, EGFR peptide 287-302 (806 peptide epitope) (human, not fully specified (bridges); also: oxidized form in the crystals); assay: BIAcore, immobilised peptide, 200 nM antibody
T2 construct: Immobilised by amine, thiol or Pms-Ser coupling; oxidized form in the crystals
T2 peptide: CGADSYEMEEDGVRKC

Molecule: mAb175: murine monoclonal antibody, SEQ ID NO:129 and SEQ ID NO:134
immunohistochemical staining (xenograft A431): stains
immunohistochemical staining (xenograft U87MG (native)): does not stain
staining [1]: does not bind
reactivity with EGFR fragments (EGFR fragments): reacted with both the 274-501 and 282-501 EGFR fragments; also recorded: did not detect fragments commencing at amino acid 290 or 298; also recorded: a 274-501 EGFR fragment with the mAb806 epitope deleted (Δ287-302) was also negative for mAb175 binding
binding to EGFR fragments [2]: recognized the yeast fragment 273-621; also recorded: not to fragments 1-176, 1-294, 294-543, or 475-621; also recorded: binds to the denatured fragment of the 273-621
FACS binding (DU145 cells): bind to DU145 cells
mean tumor volume (DU145 xenografts): 815 mm^3

Molecule: mAb175 (antibody)
Kd [3]: 154 nM
Kd [4]: 143 nM
Kd [5]: 35 nM

B1: hu806: humanized (veneered) 806 antibody, SEQ ID NO:42 and SEQ ID NO:47 (antibody, V domains shown)
VH: MDWTWRILFLVAAATGVHSQVQLQESGPGLVKPSQTLSLTCTVSGYSISSDFAWNWIRQPPGKGLEWMGYISYSGNTRYQPSLKSRITISRDTSKNQFFLKLNSVTAADTATYYCVTAGRGFPYWGQGTLVTVSS
VL: MDWTWRILFLVAAATGVHSDIQMTQSPSSMSVSVGDRVTITCHSSQDINSNIGWLQQKPGKSFKGLIYHGTNLDDGVPSRFSGSGSGTDYTLTISSLQPEDFATYYCVQYAQFPWTFGGGTKLEIKR
xenograft growth [10]: marked reduction in A431 xenograft growth
xenograft growth [11]: significant reduction in tumor growth by day 20

Second part, led by results:

percent of immunoreactive cells [6]: > 75%
percent of immunoreactive cells (de2-7 EGFR (human)): > 75%
binding sites per cell (sites per cell) [7]: 2e+06
ratio of antibody binding mAb 528/M2 [8]: 1.37
ratio of antibody binding mAb 528/M2 [9]: 1.08
Molecule: 528 antibody

mAb806 binding to EGFR in cell lysate (EGFR of A431 cells): significantly increased
Molecule: COc1cc2ncnc(Nc3cccc(Cl)c3)c2cc1OC [AG1478, 4-(3-Chloroanilino)-6,7-dimethoxyquinazoline, reference compound]
tumor volume (A431 xenografts): significant reduction of tumor volume

Binding of biotin-labeled 806 [12]: None
Binding to mAb806 peptide (RU), maximal [13]: 800 RU
B2: mAb1133 (antibody, mouse IgG2a, V domains shown)
VH: DVQLQGSGPSLVKPSQSLSLTCTVTGYSITSDYAWNWIRQFPGNKLEWMGYISYSGNTRYNPSLRSRISITRDTSKNQFFLQLNSVTTEDTATYYCATAGRGFPYWGQGTLVTVSA
VL: DILMTQSPSSMSVSLGDTVNITCHSSQDINSNIGWLQQKPGKSFKGLIYHGTNLDDGVPSRFSGSGSGADYSLTISSLESEDFADYYCVQYGQFPWTFGGGTKLEIKR
notes: Mouse IgG2a; variable domains only
immunohistochemical staining (xenograft U87MGΔEGFR): pos.
immunohistochemical staining (xenograft A431): pos. (predominantly

Source: patent publication US20240117073A1, “METHODS OF TREATING NEOPLASTIC ASTROCYTOMA” (Ludwig Institute for Cancer Research Ltd., priority 2009, published 2024)
